The values that follow are results of earlier work, collected in patent US20240247069A1, “FGFR3 BINDING MOLECULES AND METHODS OF USE THEREOF” (Regeneron Pharmaceuticals, Inc., priority 2023, published 2024).

Residue numbers refer to the chain shown, from its start.

B1: 15D8: anti-FGFR3 domain 3 antibody of WO 2010/002862 A2; VH SEQ ID NO:51, VL SEQ ID NO:52 (antibody, V domains shown)
VH: EIQLQQSGPELVKPGASVKVSCKASGYAFTSYNMYWVKQSHGKSLEWIGYIDPYNGGTSYNQKFKGKATLTVDKSSSTAYMHLNSLTSEDSAVYYCAREGGNYEAWFAYWGQGTLVTVSA
VL: QIVLTQSPALMSASPGEKVTMTCSASSSVSYMYWYQQKPRSSPKPWIYLTSYLASGVPARFSGSGSGTSYSLTISSMEAEDAATYYCQQWSSYPLTFGAGTKLELK
B2: 4E7(7D12): anti-FGFR3 domain 3 antibody of WO 2010/002862 A2; VH SEQ ID NO:56, VL SEQ ID NO:54 (antibody, V domains shown)
VH: B1 VH with S59R
VL: B1 VL with Y52N, Y93N
B3: 27H2: anti-FGFR3 domain 3 antibody of WO 2010/002862 A2; VH SEQ ID NO:53, VL SEQ ID NO:54 (antibody, V domains shown)
VH: B1 VH with S59R, L70M
VL: B1 VL with Y52N, Y93N
B4: 2G4: anti-FGFR3 domain 3 antibody of WO 2010/002862 A2; VH SEQ ID NO:55, VL SEQ ID NO:54 (antibody, V domains shown)
VH: B1 VH with S59R, Y60D
VL: B1 VL with Y52N, Y93N
B5: 20B4: anti-FGFR3 domain 3 antibody of WO 2010/002862 A2; VH SEQ ID NO:57, VL SEQ ID NO:58 (antibody, V domains shown)
VH: EIQLQQSGPELVKPGASVKVSCKASGYSLTDYNMYWVKQSHGKSLEWIGYIDPYNGGTSYNQKFKGKATLTVDKSSSTAFMHLNSLTSEDSAVYYCARSLGPDFDYWGQGTTLTVSS
VL: QIVLTQSPAIMSASPGEKVTMTCSASSSVNYMHWYQQKSGTSPKRWIYDTSKLASGVPARFSGSGSGTSYSLTISSMEAEDTATYYCQQWNSNPLTFGAGTKLELK
B6: Hu15D8: anti-FGFR3 domain 3 antibody of WO 2010/002862 A2; VH SEQ ID NO:59, VL SEQ ID NO:60 (antibody, V domains shown)
VH: EVQLVQSGAEVKKPGESLKISCKGSGYSFTSYNMYWVRQMPGKGLEWMGYIDPYNGGTSYNQKFKGKATLTVDKSISTAYLQWSSLKASDTAMYYCAREGGNYEAWFAYWGQGTLVTVSS
VL: DIQLTQSPSSLSASVGDRVTITCSASSSVSYMYWFQQKPGKAPKPLIYLTSYLASGVPSRFSGSGSGTDFTLTISSLQPEDFATYYCQQWSSYPLTFGGGTKVEIK
B7: PRQ-026: anti-FGFR3 IIIc antibody of WO 2006/048877 A2; VH SEQ ID NO:36, VL SEQ ID NO:37 (antibody, V domains shown)
VH: QVQLVQSGAEVKKPGASVKVSCKASGYTFTSYYMHWVRQAPGQGLEWMGWINPNSGGTNYAQKFQGRVTMTRDTSISTAYMELSSLRSEDTAVYYCARGYWYAYFTYINYGYFDNWGQGTLVTVSS
VL: DIALTQPASVSGSPGQSITISCTGTSSDVGGYNYVSWYQQHPGKAPKLMIYDVSNRPSGVSNRFSGSKSGNTASLTISGLQAEDEADYYCQSYDNNSDWFGGGTKLTVLGQ
B8: MS-Pro-54: anti-FGFR3 Ig-like domain 3 antibody of WO 2002/102972 A2; VH SEQ ID NO:42, VL SEQ ID NO:43 (antibody, V domains shown)
VH: QVQLVQSGAEVKKPGASVKVSCKASGYTFTSYYMHWVRQAPGQGLEWMGWINPNSGGTNYAQKFQGRVTMTRDTSISTAYMELSSLRSEDTAVYYCARNMAYTNYQYVNMPHFDYWGQGTLVTVSS
VL: DIELTQPPSVSVAPGQTARISCSGDALGDKYASWYQQKPGQAPVLVIYDDSDRPSGIPERFSGSNSGNTATLTISGTQAEDEADYCQSYDYFKLVFGGGTKLTVLGQ
B9: PRQ-054: anti-FGFR3 IIIc antibody of WO 2006/048877 A2; VH SEQ ID NO:42, VL SEQ ID NO:50 (antibody, V domains shown)
VH: B8 VH
VL: DIELTQPPSVSVAPGQTARISCSGDALGDKYASWYQQKPGQAPVLVIYDDSDRPSGIPERFSGSNSGNTATLTISGTQAEDEADYYCQSYDYFKLVFGGGTKLTVLGQ
B10: PRQ-029: anti-FGFR3 IIIc antibody of WO 2006/048877 A2; VH SEQ ID NO:40, VL SEQ ID NO:49 (antibody, V domains shown)
VH: QVQLVQSGAEVKKPGASVKVSCKASGYTFTSYYMHWVRQAPGQGLEWMGWINPNSGGTNYAQKFQGRVTMTRDTSISTAYMELSSLRSEDTAVYYCARTWQYSYFYYLDGGYYFDIWGQGTLVTVSS
VL: DIVLTQSPATLSLSPGERATLSCRASQSVSSSYLAWYQQKPGQAPRLLIYGASSRATGVPARFSGSGSGTDFTLTISSLEPEDFATYYCQQTNNAPVTFGQGTKVEIKRT
B11: MS-Pro-55: anti-FGFR3 Ig-like domain 3 antibody of WO 2002/102972 A2; VH SEQ ID NO:44, VL SEQ ID NO:45 (antibody, V domains shown)
VH: QVQLVQSGAEVKKPGASVKVSCKASGYTFTSYYMHWVRQAPGQGLEWMGWINPNSGGTNYAQKFQGRVTMTRDTSISTAYMELSSLRSEDTAVYYCARSMNSTMYWYLRRVLFDHWGQGTLVTVSS
VL: DIALTQPASVSGSPGQSITISCTGTSSDVGGYNYVSWYQQHPGKAPKLMIYDVSNRPSGVSNRFSGSKSGNTASLTISGLQAEDEADYYCQSYDMYNYIVFGGGTKLTVLGQ
B12: PRQ-055: anti-FGFR3 IIIc antibody of WO 2006/048877 A2; VH SEQ ID NO:44, VL SEQ ID NO:45 (antibody, V domains shown)
VH: B11 VH
VL: B11 VL
B13: PRQ-001: anti-FGFR3 domain 2 antibody of WO 2006/048877 A2; VH SEQ ID NO:46, VL SEQ ID NO:29 (antibody, V domains shown)
VH: QVQLQQSGPGLVKPSQTLSLTCAISGDSVSSNSAAWNWIRQSPGRGLEWLGRTYYRSKWYNDYAVSVKSRITINPDTSKNQFSLQLNSVTPEDTAVYYCARSYYPDFDYWGQGTLVTVSS
VL: DIELTQPPSVSVAPGQTARISCSGDALGDKYASWYQQKPGQAPVLVIYDDSDRPSGIPERFSGSNSGNTATLTISGTQAEDEADYYCQSYDGPDLWVFGGGTKLTVLGQ
B14: PRQ-002: anti-FGFR3 domain 2 antibody of WO 2006/048877 A2; VH SEQ ID NO:24, VL SEQ ID NO:25 (antibody, V domains shown)
VH: QVQLVQSGAEVKKPGASVKVSCKASGYTFTSYYMHWVRQAPGQGLEWMGWINPNSGGTNYAQKFQGRVTMTRDTSISTAYMELSSLRSEDTAVYYCARDFLGYEFDYWGQGTLVTVSS
VL: B13 VL with G92Y, P93S, D94A, L95D, W96Y
B15: PRQ-012: anti-FGFR3 domain 2 antibody of WO 2006/048877 A2; VH SEQ ID NO:47, VL SEQ ID NO:27 (antibody, V domains shown)
VH: QVQLKESGPALVKPTQTLTLTCTFSGFSLSTSGVGVGWIRQPPGKALEWLALIDWDDDKYYSTSLKTRLTISKDTSKNQVVLTMTNMDPVDTATYYCARYHSWYEMGYYGSTVGYMFDYWGQGTLVTVSS
VL: B9 VL with Y92F, F93D, K94F, L95A
B16: MS-PRQ-12: anti-FGFR3 Ig-like domain 2 antibody of WO 2002/102972 A2; VH SEQ ID NO:26, VL SEQ ID NO:27 (antibody, V domains shown)
VH: QVQLKESGPALVKPQTLTLTCTFSGFSLSTSGVGVGWIRQPPGKALEWLALIDWDDDKYYSTSLKTRLTISKDTSKNQVVLTMTNMDPVDTATYYCARYHSWYEMGYYGSTVGYMFDYWGQGTLVTVSS
VL: B9 VL with Y92F, F93D, K94F, L95A

The first series deals with FGFR3. Conditions: Table T-3, exemplary FGFR3 D3 binding sequences from cited PCT publications.
As to B1, the Activity entry was “Antagonistic”.
With B2, the Activity entry is given as “Antagonistic”.
Consider B3, for which the Activity result is on record as “Antagonistic”.
As to B4, the Activity result is given as “Antagonistic”.
On to B5, for which the Activity result was “Antagonistic”.
B6: the Activity entry is “Antagonistic”.
Regarding B7, the Activity result is on record as “Antagonistic”.
B8: the Activity entry is given as “Antagonistic”.
With B9, the Activity entry was “Antagonistic”.
Regarding B10, the Activity entry is reported as “Antagonistic”.
On to B11, for which the Activity entry was “Antagonistic”.
As to B12, the Activity entry is given as “Antagonistic”.

The series is the same for the next values; noted with them: literature antibodies, sequences from cited PCT publications.
In the case of B1, the Activity entry is listed as “Antagonistic”.
B2: the Activity entry was “Antagonistic”.
Turning to B3, the Activity result is “Antagonistic”.
On to B4, for which the Activity entry is listed as “Antagonistic”.
B5: the Activity result is listed as “Antagonistic”.
As to B6, the Activity entry is reported as “Antagonistic”.
For B7, the Activity result was “Antagonistic”.
For B8, the Activity entry is “Antagonistic”.
Consider B9, for which the Activity result is given as “Antagonistic”.
Regarding B10, the Activity result is given as “Antagonistic”.
As for B13, the Activity result is “Antagonistic”.
As for B14, the Activity entry was “Antagonistic”.
Regarding B11, the Activity result is recorded as “Antagonistic”.
B12: the Activity result is on record as “Antagonistic”.
B15: the Activity result is listed as “Antagonistic”.
For B16, the Activity entry was “Antagonistic”.
